{"source": "the supplement of paper PMC10567573", "parents": {"B1": {"name": "ZNF207 (parent)", "chain": "CHICHKKLYTGPGLAIHCMQVHKE"}}, "data": [{"variants_of": "B1", "assay": "protein stability index of a GFP-peptide fusion (GPS, HEK-293T) (PSI 1-6); higher = more stable", "details": "c terminus: a fixed tail appended", "values": [{"variant": "CHICHKKLYKGPGLAIHCMQVHKE", "note": "[T10K]", "protein stability index": 2.65}, {"variant": "CHICHKKLYNGPGLAIHCMQVHKE", "note": "[T10N]", "protein stability index": 3.58}, {"variant": "CHICHKKLYAGPGLAIHCMQVHKE", "note": "[T10A]", "protein stability index": 3.47}, {"variant": "CHICHKKLYGGPGLAIHCMQVHKE", "note": "[T10G]", "protein stability index": 3.06}, {"variant": "CHICHKKLYQGPGLAIHCMQVHKE", "note": "[T10Q]", "protein stability index": 3.8}, {"variant": "CHICHKKLYYGPGLAIHCMQVHKE", "note": "[T10Y]", "protein stability index": 2.6}, {"variant": "CHICHKKLYIGPGLAIHCMQVHKE", "note": "[T10I]", "protein stability index": 2.86}, {"variant": "CHICHKKLYWGPGLAIHCMQVHKE", "note": "[T10W]", "protein stability index": 2.56}, {"variant": "CHICHKKLYMGPGLAIHCMQVHKE", "note": "[T10M]", "protein stability index": 2.55}, {"variant": "CHITHKKLYTGPGLAIHCMQVHKE", "note": "[C4T]", "protein stability index": 1.5}, {"variant": "CHISHKKLYTGPGLAIHCMQVHKE", "note": "[C4S]", "protein stability index": 1.38}, {"variant": "CHIWHKKLYTGPGLAIHCMQVHKE", "note": "[C4W]", "protein stability index": 1.88}, {"variant": "CHIPHKKLYTGPGLAIHCMQVHKE", "note": "[C4P]", "protein stability index": 2.5}, {"variant": "CHIMHKKLYTGPGLAIHCMQVHKE", "note": "[C4M]", "protein stability index": 2.12}, {"variant": "CHIRHKKLYTGPGLAIHCMQVHKE", "note": "[C4R]", "protein stability index": 1.94}, {"variant": "CHIYHKKLYTGPGLAIHCMQVHKE", "note": "[C4Y]", "protein stability index": 2.04}, {"variant": "CHINHKKLYTGPGLAIHCMQVHKE", "note": "[C4N]", "protein stability index": 1.9}, {"variant": "CHIQHKKLYTGPGLAIHCMQVHKE", "note": "[C4Q]", "protein stability index": 2.01}, {"variant": "CHICHKKLYTIPGLAIHCMQVHKE", "note": "[G11I]", "protein stability index": 1.58}, {"variant": "CHICHKKLYTAPGLAIHCMQVHKE", "note": "[G11A]", "protein stability index": 2.67}, {"variant": "CHICHKKLYTMPGLAIHCMQVHKE", "note": "[G11M]", "protein stability index": 2.05}, {"variant": "CHICHKKLYTLPGLAIHCMQVHKE", "note": "[G11L]", "protein stability index": 2.63}, {"variant": "CHICHKKLYTEPGLAIHCMQVHKE", "note": "[G11E]", "protein stability index": 4.53}, {"variant": "CHICHKKLYTNPGLAIHCMQVHKE", "note": "[G11N]", "protein stability index": 3.59}, {"variant": "CHICHKKLYTKPGLAIHCMQVHKE", "note": "[G11K]", "protein stability index": 3.34}, {"variant": "CHICHKKLYTWPGLAIHCMQVHKE", "note": "[G11W]", "protein stability index": 1.36}, {"variant": "CHICHKKLYTQPGLAIHCMQVHKE", "note": "[G11Q]", "protein stability index": 3.37}, {"variant": "CHICHKKLYTRPGLAIHCMQVHKE", "note": "[G11R]", "protein stability index": 3.53}, {"variant": "CHICHKKLYTCPGLAIHCMQVHKE", "note": "[G11C]", "protein stability index": 2.31}, {"variant": "CHICHKKLYTPPGLAIHCMQVHKE", "note": "[G11P]", "protein stability index": 3.94}, {"variant": "CHICHKKLYTTPGLAIHCMQVHKE", "note": "[G11T]", "protein stability index": 2.48}, {"variant": "CHICHKKLYTYPGLAIHCMQVHKE", "note": "[G11Y]", "protein stability index": 1.56}, {"variant": "CHICHKKLYTVPGLAIHCMQVHKE", "note": "[G11V]", "protein stability index": 2.32}, {"variant": "CHICHKKLYTFPGLAIHCMQVHKE", "note": "[G11F]", "protein stability index": 2.63}, {"variant": "CHICHKKLYTHPGLAIHCMQVHKE", "note": "[G11H]", "protein stability index": 2.68}, {"variant": "CHICHKKLYTDPGLAIHCMQVHKE", "note": "[G11D]", "protein stability index": 3.98}, {"variant": "CHICHKKLYTSPGLAIHCMQVHKE", "note": "[G11S]", "protein stability index": 3.48}, {"variant": "CHICHKKLYTGKGLAIHCMQVHKE", "note": "[P12K]", "protein stability index": 3.5}, {"variant": "CHICHKKLYTGWGLAIHCMQVHKE", "note": "[P12W]", "protein stability index": 3.49}, {"variant": "CHICHKKLYTGFGLAIHCMQVHKE", "note": "[P12F]", "protein stability index": 2.41}, {"variant": "CHICHKKLYTGDGLAIHCMQVHKE", "note": "[P12D]", "protein stability index": 4.51}, {"variant": "CHICHKKLYTGTGLAIHCMQVHKE", "note": "[P12T]", "protein stability index": 3.18}, {"variant": "CHICHKKLYTGQGLAIHCMQVHKE", "note": "[P12Q]", "protein stability index": 4.11}, {"variant": "CHICHKKLYTGYGLAIHCMQVHKE", "note": "[P12Y]", "protein stability index": 3.73}, {"variant": "CHICHKKLYTGEGLAIHCMQVHKE", "note": "[P12E]", "protein stability index": 4.48}, {"variant": "CHICHKKLYTGNGLAIHCMQVHKE", "note": "[P12N]", "protein stability index": 4.09}, {"variant": "CHICHKKLYTGAGLAIHCMQVHKE", "note": "[P12A]", "protein stability index": 3.84}, {"variant": "CHICHKKLYTGCGLAIHCMQVHKE", "note": "[P12C]", "protein stability index": 3.09}, {"variant": "CHICHKKLYTGGGLAIHCMQVHKE", "note": "[P12G]", "protein stability index": 3.09}, {"variant": "CHICHKKLYTGVGLAIHCMQVHKE", "note": "[P12V]", "protein stability index": 2.05}, {"variant": "CHICHKKLYTGSGLAIHCMQVHKE", "note": "[P12S]", "protein stability index": 3.86}, {"variant": "CHICHKKLYTGHGLAIHCMQVHKE", "note": "[P12H]", "protein stability index": 5.06}, {"variant": "CHICHKKLYTGLGLAIHCMQVHKE", "note": "[P12L]", "protein stability index": 3.46}, {"variant": "CHICHKKLYTGMGLAIHCMQVHKE", "note": "[P12M]", "protein stability index": 3.24}, {"variant": "CHICHKKLYTGIGLAIHCMQVHKE", "note": "[P12I]", "protein stability index": 3.03}, {"variant": "CHICHKKLYTGRGLAIHCMQVHKE", "note": "[P12R]", "protein stability index": 3.88}, {"variant": "CHICHKKLHTGPGLAIHCMQVHKE", "note": "[Y9H]", "protein stability index": 3.62}, {"variant": "CHICHKKLCTGPGLAIHCMQVHKE", "note": "[Y9C]", "protein stability index": 3.39}, {"variant": "CHICHKKLPTGPGLAIHCMQVHKE", "note": "[Y9P]", "protein stability index": 3.64}, {"variant": "CHICHKKLVTGPGLAIHCMQVHKE", "note": "[Y9V]", "protein stability index": 3.19}, {"variant": "CHICHKKLITGPGLAIHCMQVHKE", "note": "[Y9I]", "protein stability index": 2.72}, {"variant": "CHICHKKLNTGPGLAIHCMQVHKE", "note": "[Y9N]", "protein stability index": 3.83}, {"variant": "CHICHKKLRTGPGLAIHCMQVHKE", "note": "[Y9R]", "protein stability index": 4.11}, {"variant": "CHICHKKLTTGPGLAIHCMQVHKE", "note": "[Y9T]", "protein stability index": 3.27}, {"variant": "CHICHKKLKTGPGLAIHCMQVHKE", "note": "[Y9K]", "protein stability index": 3.29}, {"variant": "CHICHKKLMTGPGLAIHCMQVHKE", "note": "[Y9M]", "protein stability index": 4.14}, {"variant": "CHICHKKLETGPGLAIHCMQVHKE", "note": "[Y9E]", "protein stability index": 4.6}, {"variant": "CHICHKKLDTGPGLAIHCMQVHKE", "note": "[Y9D]", "protein stability index": 4.9}, {"variant": "CHICHKKLSTGPGLAIHCMQVHKE", "note": "[Y9S]", "protein stability index": 4.28}, {"variant": "CHICHKKLQTGPGLAIHCMQVHKE", "note": "[Y9Q]", "protein stability index": 3.93}, {"variant": "CHICHKKLGTGPGLAIHCMQVHKE", "note": "[Y9G]", "protein stability index": 3.76}, {"variant": "CHICHKKLFTGPGLAIHCMQVHKE", "note": "[Y9F]", "protein stability index": 3.16}, {"variant": "CHICHKKLATGPGLAIHCMQVHKE", "note": "[Y9A]", "protein stability index": 4.31}, {"variant": "CHICHKKLWTGPGLAIHCMQVHKE", "note": "[Y9W]", "protein stability index": 2.34}, {"variant": "CHICHKKLLTGPGLAIHCMQVHKE", "note": "[Y9L]", "protein stability index": 3.97}, {"variant": "CHICHKKAYTGPGLAIHCMQVHKE", "note": "[L8A]", "protein stability index": 2.33}, {"variant": "CHICHKKHYTGPGLAIHCMQVHKE", "note": "[L8H]", "protein stability index": 3.14}, {"variant": "CHICHKKEYTGPGLAIHCMQVHKE", "note": "[L8E]", "protein stability index": 3.96}, {"variant": "CHICHKKCYTGPGLAIHCMQVHKE", "note": "[L8C]", "protein stability index": 3.16}, {"variant": "CHICHKKTYTGPGLAIHCMQVHKE", "note": "[L8T]", "protein stability index": 3.02}, {"variant": "CHICHKKFYTGPGLAIHCMQVHKE", "note": "[L8F]", "protein stability index": 2.44}, {"variant": "CHICHKKGYTGPGLAIHCMQVHKE", "note": "[L8G]", "protein stability index": 3.61}, {"variant": "CHICHKKWYTGPGLAIHCMQVHKE", "note": "[L8W]", "protein stability index": 2.66}, {"variant": "CHICHKKMYTGPGLAIHCMQVHKE", "note": "[L8M]", "protein stability index": 4.63}, {"variant": "CHICHKKDYTGPGLAIHCMQVHKE", "note": "[L8D]", "protein stability index": 3.37}, {"variant": "CHICHKKNYTGPGLAIHCMQVHKE", "note": "[L8N]", "protein stability index": 2.97}, {"variant": "CHICHKKVYTGPGLAIHCMQVHKE", "note": "[L8V]", "protein stability index": 4.12}, {"variant": "CHICHKKIYTGPGLAIHCMQVHKE", "note": "[L8I]", "protein stability index": 3.67}, {"variant": "CHICHKKKYTGPGLAIHCMQVHKE", "note": "[L8K]", "protein stability index": 2.42}, {"variant": "CHICHKKRYTGPGLAIHCMQVHKE", "note": "[L8R]", "protein stability index": 1.37}, {"variant": "CHICHKKPYTGPGLAIHCMQVHKE", "note": "[L8P]", "protein stability index": 3.1}, {"variant": "CHICHKKQYTGPGLAIHCMQVHKE", "note": "[L8Q]", "protein stability index": 2.93}, {"variant": "CHICHKKYYTGPGLAIHCMQVHKE", "note": "[L8Y]", "protein stability index": 2.33}, {"variant": "CHICHKKSYTGPGLAIHCMQVHKE", "note": "[L8S]", "protein stability index": 2.57}]}]}
